Results taken from article doi:10.1101/2021.06.15.447100.

Columns and labels:
[1] = target: BG505 SOSIP.664 (HIV-1 (clade A, BG505)); experiment: SEC
[2] = target: C.1086 UFO gp140 (Uncleaved preFusion Optimized, no disulfide linkage between A501 and T605) (HIV-1 (clade C, C.1086)); experiment: negative stain electron microscopy
[3] = target: C.1086 UFO gp140 (Uncleaved preFusion Optimized, no disulfide linkage between A501 and T605) (HIV-1 (clade C, C.1086)); experiment: SEC
[4] = target: C.1086 NFL gp140 (Native Flexibly Linked with I559P) (HIV-1 (clade C, C.1086)); experiment: SEC
[5] = target: C.1086 SOSIP gp140 (HIV-1 (clade C, C.1086)); experiment: SEC

## BG505 SOSIP.664 (natural protein)
[1]
  stoichiometry N: 3

## C.1086 UFO gp140 (Uncleaved preFusion Optimized, no disulfide linkage between A501 and T605) (natural protein)
[2]
  stoichiometry N: 3
[3]
  stoichiometry N: 3

## C.1086 NFL gp140 (Native Flexibly Linked with I559P) (natural protein)
[4]
  stoichiometry N: 3

## C.1086 SOSIP gp140 (natural protein)
[5]
  stoichiometry N: 3
